Article PMC7948507, “Active site metals mediate an oligomeric equilibrium in Plasmodium M17 aminopeptidases” (The Journal of Biological Chemistry, 2020)
Changes are numbered by the printed parent chain. Numbers in names are those of the source.

Assays:
[1] = molecular target: the molecule itself; test: crystal structure; 0.1 M HEPES pH 6.5, 15% PEG 3350, 0.15 M (NH4)2SO4; two hexamers in the asymmetric unit
[2] = molecular target: the molecule itself; test: SEC; in the presence of 100 mM EDTA
[3] = molecular target: the molecule itself; test: AUC; sedimentation velocity, 0.5 mg/ml, 20 °C, 50 mM HEPES pH 8.0, 0.3 M NaCl with 50 μM MnCl2
[4] = molecular target: the molecule itself; test: SEC-MALS; 100 μl samples at 3 mg/ml, Superdex S200 Increase 10/300 GL, 50 mM HEPES pH 8.0, 0.3 M NaCl, no metal added
[5] = molecular target: the molecule itself; test: AUC; sedimentation velocity, 0.5 mg/ml, 20 °C, 40,000 rpm, 50 mM HEPES pH 8.0, 0.3 M NaCl, no metal added

B1: Pv-M17Δ125-151 (enzyme)
chain: MATTVPQVVSLDPTTIPIDYHTPIDDLSIEVKDISAEACPADEGLIVFLLNSQIKINSSVKDNTINEFLKEGNMENFTGKLGTSKSFYIANDQKKYVSLAYVGCGPANEETELEIRKVAYALVTLLHDSKHKKVSIIFEIKIEEALFRFFLEHLFYEYVTDERFKSADKSTETDFIKNLSLHIANADAYKGQIDKARVYFYGTYYAAQLIAAPSNYCNPVSLSNAAVELAQKVNLECKILDVKELEELKMGAYLSVGKGSMYPNKFIHLTYKGAQTGASQNEKKKIALIGKGITFDSGGYNLKAAPGSMIDLMKFDMSGCAAVLGCAYCIGTIKPDNVEVHFLSAVCENMVSKNSYRPGDIITASNGKTIEVGNTDAEGRLTLADALVYAEKLGVDYIVDIATLTGAMLYSLGTSYAGVFGNNDQLINKILSSSKTSNEPVWWLPIINEYRSSLNSKYADLNNISSSVKASSVVASLFLKEFIENTPWAHIDIAGVSWNFKARKPKGFGVRLLTEFVLNDAV
notes: also called Pv-M17 N-terminal loop deletion mutant; source: E. coli BL21 DE3, purified (Ni-NTA, SEC)
[1]
  stoichiometry N: 6

B2: Plasmodium vivax M17 aminopeptidase Pv-M17 (residues 73-621), wild type (enzyme, UniProt A5K3U9 73-621, looked up)
chain: MATTVPQVVSLDPTTIPIDYHTPIDDLSIEVKDISAEACPADEGLIVFLLNSAPKHSSSGGSGGNGGSAGSSGNGEGGAQIKINSSVKDNTINEFLKEGNMENFTGKLGTSKSFYIANDQKKYVSLAYVGCGPANEETELEIRKVAYALVTLLHDSKHKKVSIIFEIKIEEALFRFFLEHLFYEYVTDERFKSADKSTETDFIKNLSLHIANADAYKGQIDKARVYFYGTYYAAQLIAAPSNYCNPVSLSNAAVELAQKVNLECKILDVKELEELKMGAYLSVGKGSMYPNKFIHLTYKGAQTGASQNEKKKIALIGKGITFDSGGYNLKAAPGSMIDLMKFDMSGCAAVLGCAYCIGTIKPDNVEVHFLSAVCENMVSKNSYRPGDIITASNGKTIEVGNTDAEGRLTLADALVYAEKLGVDYIVDIATLTGAMLYSLGTSYAGVFGNNDQLINKILSSSKTSNEPVWWLPIINEYRSSLNSKYADLNNISSSVKASSVVASLFLKEFIENTPWAHIDIAGVSWNFKARKPKGFGVRLLTEFVLNDAV
notes: M17 leucyl aminopeptidase of Plasmodium vivax, residues 73-621; N-terminal truncation of 72 residues; it is residues 73-621; Synthetic gene (DNA 2.0) in pJ404; also called PvLAP; Pv-M17 WT; source: E. coli BL21 DE3, purified (Ni-NTA, SEC)
[2]
  stoichiometry N: 4
[3]
  stoichiometry N: 6
[4]
  stoichiometry N: 2

B3: Pv-M17 (D395A and E477L) (enzyme)
chain: B2 chain with D323A, E405L
notes: also called Pv-M17(AL); Pv-M17 (AL); source: E. coli BL21 DE3, purified (Ni-NTA, SEC)
[5]
  binding result: binds

B4: Plasmodium falciparum M17 aminopeptidase PfA-M17 (residues 84-605), wild type (enzyme, UniProt Q8IL11 84-605, looked up)
chain: MASEVPQVVSLDPTSIPIEYNTPIHDIKVQVYDIKGGCNVEEGLTIFLVNNPGKENGPVKISSKVNDKNVSEFLKDENMEKFNVKLGTSKHFYMFNDNKNSVAVGYVGCGSVADLSEADMKRVVLSLVTMLHDNKLSKLTVVFEINVDKNLFRFFLETLFYEYMTDERFKSTDKNVNMEYIKHLGVYINNADTYKEEVEKARVYYFGTYYASQLIAAPSNYCNPVSLSNAAVELAQKLNLEYKILGVKELEELKMGAYLSVGKGSMYPNKFIHLTYKSKGDVKKKIALVGKGITFDSGGYNLKAAPGSMIDLMKFDMSGCAAVLGCAYCVGTLKPENVEIHFLSAVCENMVSKNSYRPGDIITASNGKTIEVGNTDAEGRLTLADALVYAEKLGVDYIVDIATLTGAMLYSLGTSYAGVFGNNEELINKILNSSKTSNEPVWWLPIINEYRATLNSKYADINNISSSVKASSIVASLFLKEFVQNTAWAHIDIAGVSWNFKARKPKGFGVRLLTEFVLNDAL
notes: M17 leucyl aminopeptidase of Plasmodium falciparum, residues 84-605; residues 1-83 (asparagine-rich low complexity region) omitted; In solution a metal-dependent equilibrium of monomer, dimer, tetramer and hexamer; also called PfLAP; PfA-M17 WT; source: E. coli BL21 DE3, purified (Ni-NTA, SEC)
[5]
  stoichiometry N: 2
[4]
  stoichiometry N: 6

B5: PfA-M17 (D379A + E461L) (enzyme)
chain: B4 chain with D296A, E378L
notes: also called PfA-M17(AL); PfA-M17 (AL); source: E. coli BL21 DE3, purified (Ni-NTA, SEC)
[5]
  binding result: binds
